Data: the supplement of paper PMC10724198
± gives the standard deviation of the averaged measurements.

test system: Saccharomyces cerevisiae; experiment: protein stability index of tFT-peptide fusion (C-terminal peptide) (PSI (0-1 scale)); higher = more stable (slower turnover); settings: genetic background: wild type; temperature: 30 C
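Also: PSI is a weighted mean of sequencing reads over stability bins, variants kept only with over 10 reads, mCherry proximal and sfGFP distal, peptide attached via GGGS linker.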

| Sequence | protein stability index |
| --- | --- |
| RSSCVRGVTLAL | 0.695 ± 0.023 |
| RSSEVQADRMCQ | 0.668 ± 0.025 |
| RSSFCGVRAWLA | 0.704 ± 0.078 |
| RSSKCRGQKGLG | 0.687 ± 0.014 |
| RSSLSGLPPLPP | 0.721 ± 0.14 |
| RSSPVPLSCRKG | 0.66 ± 0.037 |
| RSVPPSSPPPYF | 0.699 ± 0.037 |
| RSVWVGGVTNLG | 0.657 ± 0.063 |
| RSWISGVRPSYP | 0.75 ± 0.036 |
| RTCPSPSAHLRL | 0.741 ± 0.0085 |
| RTECRCCVGEVG | 0.656 ± 0.069 |
| RTKIEIKNRENI | 0.774 ± 0.12 |
| RTKMKERTCEEG | 0.697 ± 0.02 |
| RTLNILCGGALR | 0.691 ± 0.049 |
| RTLPFPHAGLLF | 0.6816 ± 0.0061 |
| RTPPCLTPLEET | 0.713 ± 0.037 |
| RTQRGRMGGEQG | 0.762 ± 0.12 |
| RTRPALPSPPPH | 0.725 ± 0.022 |
| RTRSKVSVSFND | 0.728 ± 0.043 |
| RTSKRKKSDARK | 0.784 ± 0.022 |
| RTTDPHNRPIRP | 0.6552 ± 0.0047 |
| RTWNSIESRKIK | 0.706 ± 0.074 |
| RVANCGDGSIAV | 0.652 ± 0.053 |

| Sequence | protein stability index |
| --- | --- |
| RVAPITARLAPH | 0.859 ± 0.12 |
| RVCKALKNDNLI | 0.73 ± 0.07 |
| RVGGGRDVRGGG | 0.723 ± 0.042 |
| RVGQDGFRVAGC | 0.594 ± 0.12 |
| RVISIIREQEPV | 0.677 ± 0.034 |
| RVKFIEQASRFV | 0.764 ± 0.12 |
| RVPPGSPYPPLL | 0.7319 ± 0.0028 |
| RVPVSQHARTRN | 0.6744 ± 0.0055 |
| RVQFYVGSPALR | 0.69684 ± 0.00031 |
| RVQLTLKGTGVT | 0.629 ± 0.029 |
| RVRGEHKLIGRA | 0.652 ± 0.034 |
| RVRQQKIFPSLD | 0.7057 ± 0.0062 |
| RVSACVDGHVFL | 0.643 ± 0.0071 |
| RVSTIEAEINLR | 0.708 ± 0.012 |
| RVSVFILGWFRD | 0.532 ± 0.018 |
| RVSVSWDDGVMV | 0.652 ± 0.0088 |
| RVWQGRDGTVMK | 0.659 ± 0.019 |
| RVYKTAYNRRTQ | 0.832 ± 0.021 |
| RVYYPSGVKCRL | 0.671 ± 0.033 |
| RWAVYDKNRETP | 0.657 ± 0.05 |
| RWGGVVRGCSGG | 0.687 ± 0.036 |
| RWGVRFWVGDSV | 0.687 ± 0.017 |
| RWHLCERFGGRV | 0.643 ± 0.1 |

| Sequence | protein stability index |
| --- | --- |
| RWLEIQKRRGRI | 0.643 ± 0.1 |
| RWPPPPPELPPP | 0.655 ± 0.039 |
| RWREGWGGFSLG | 0.665 ± 0.025 |
| RWVRGDVFQGFC | 0.693 ± 0.052 |
| RYAGGHRIGFLI | 0.649 ± 0.025 |
| RYLDPPLPLPRT | 0.6921 ± 0.0046 |
| RYNRMVERALKY | 0.677 ± 0.027 |
| RYYKKQNWKIGL | 0.663 ± 0.13 |
| SAAPVTLSRLPP | 0.699 ± 0.071 |
| SAAVLRWLASAG | 0.683 ± 0.059 |
| SAEKKRAKCERR | 0.68 ± 0.01 |
| SAGARIRPADAL | 0.6801 ± 0.0022 |
| SAGPVYAGGVAS | 0.6895 ± 0.0068 |
| SAIGVGGGGTGG | 0.676 ± 0.0082 |
| SAKARTNHAFQF | 0.678 ± 0.0097 |
| SALLPSPGPPAF | 0.656 ± 0.089 |
| SAPGIGFYTKSL | 0.653 ± 0.064 |
| SARWTSRIQDRS | 0.652 ± 0.02 |
| SASSPLPPAATG | 0.652 ± 0.051 |
| SAVARVGDVIAV | 0.613 ± 0.059 |
| SAVWWDRLDIRK | 0.687 ± 0.012 |
| SAWGLVLVGSWG | 0.602 ± 0.011 |
| SAYASCFGSESL | 0.675 ± 0.05 |

| Sequence | protein stability index |
| --- | --- |
| SCCPVESSHSLP | 0.612 ± 0.055 |
| SCDLRALALLGG | 0.707 ± 0.07 |
| SCLGSGVSWGVW | 0.731 ± 0.0053 |
| SCLHRDLSDTCQ | 0.66536 ± 0.00012 |
| SCLVWTWVSSVL | 0.573 ± 0.067 |
| SCPLSARLYASL | 0.675 ± 0.079 |
| SCPPSARLSNTC | 0.7506 ± 0.00063 |
| SCPSFVWLSFPQ | 0.7142 ± 0.0056 |
| SCRVVSGLAIWW | 0.734 ± 0.15 |
| SCSHYLPAPLPF | 0.577 ± 0.0074 |
| SCVDRAVGCRVS | 0.6961 ± 0.0042 |
| SCYTEQRVMICL | 0.592 ± 0.0023 |
| SDHVYHFRLTRV | 0.709 ± 0.076 |
| SDKGKSSVSGSN | 0.678 ± 0.012 |
| SDLGLHGRVPST | 0.6671 ± 0.0014 |
| SDPPPPPDPPSP | 0.673 ± 0.032 |
| SDSREAVLTEEP | 0.625 ± 0.13 |
| SEGRMHGLFLLN | 0.544 ± 0.022 |
| SELKNKKRKHAK | 0.706 ± 0.034 |
| SESKCRPKVSQP | 0.689 ± 0.065 |
| SEVRLMSVTSHS | 0.7417 ± 0.0038 |
| SFAPPPPPPLPS | 0.686 ± 0.025 |
| SFARPNTRALPT | 0.656 ± 0.13 |

| Sequence | protein stability index |
| --- | --- |
| SFARPSFVRPFA | 0.694 ± 0.017 |
| SFEFSSRVFSLD | 0.714 ± 0.055 |
| SFFSSSRVCLGF | 0.685 ± 0.11 |
| SFHRICTYVLRP | 0.634 ± 0.089 |
| SFILPFISPLLF | 0.565 ± 0.022 |
| SFLLGLCHFYGS | 0.718 ± 0.04 |
| SFLRHSCFPSVP | 0.736 ± 0.023 |
| SFPHLARRLLSP | 0.673 ± 0.06 |
| SFPPLRPSPPLL | 0.667 ± 0.019 |
| SFPPPPFPPLFL | 0.722 ± 0.023 |
| SFSFPFGCSSRF | 0.7195 ± 0.0046 |
| SFSPLHVGPSPL | 0.6843 ± 0.0048 |
| SFSSHPPFAPSF | 0.745 ± 0.018 |
| SFVFSVFGAGVD | 0.778 ± 0.014 |
| SFVRTLSCISIF | 0.513 ± 0.053 |
| SFWWCSARSFQG | 0.715 ± 0.03 |
| SFWWGGWGVGPD | 0.73647 ± 0.0004 |
| SFYFAPLLSPFA | 0.597 ± 0.036 |
| SGAGGGGWGGGV | 0.7535 ± 0.0062 |
| SGARDLVILTPW | 0.713 ± 0.013 |
| SGAWSGGGESGH | 0.596 ± 0.058 |
| SGCLGGGRGGWG | 0.657 ± 0.013 |
| SGCVGGSDVALS | 0.721 ± 0.018 |

| Sequence | protein stability index |
| --- | --- |
| SGDLLLGCTLVV | 0.6313 ± 0.0018 |
| SGDVENQMGEES | 0.717 ± 0.062 |
| SGEVFEDLRAPE | 0.743 ± 0.038 |
| SGEVGVGHWVGG | 0.6812 ± 0.0053 |
| SGFKRWSDVGDY | 0.6815 ± 0.0057 |
| SGGADYMDPRLT | 0.714 ± 0.027 |
| SGGCVGLAVAGG | 0.702 ± 0.056 |
| SGGGGGGDCVGA | 0.687 ± 0.015 |
| SGGGRAECGEVR | 0.702 ± 0.021 |
| SGGQGCGGGWNV | 0.708 ± 0.011 |
| SGGVRDDFLWVL | 0.728 ± 0.016 |
| SGHFGTATTLCF | 0.749 ± 0.011 |
| SGKKKVSAQRII | 0.6709 ± 0.0023 |
| SGLLSPHTHMFP | 0.598 ± 0.048 |
| SGLPRLLLVILP | 0.6104 ± 0.0031 |
| SGNSPTRDRLRE | 0.684 ± 0.16 |
| SGPTPCRSPRLL | 0.636 ± 0.051 |
| SGRGANGVPGGE | 0.602 ± 0.16 |
| SGRIYLVGLRYI | 0.538 ± 0.0068 |
| SGRTLLPPSLGD | 0.606 ± 0.025 |
| SGSFPSLALLSS | 0.642 ± 0.042 |
| SGSSRVGWLEGW | 0.676 ± 0.022 |
| SGSTRTEDDGAR | 0.652 ± 0.038 |

| Sequence | protein stability index |
| --- | --- |
| SGTRARGKGVVC | 0.6421 ± 0.0024 |
| SGVHFFLRTGAL | 0.692 ± 0.016 |
| SHAAKRYNHPHS | 0.7333 ± 0.00094 |
| SHAGTEAGPGWM | 0.782 ± 0.2 |
| SHGLLTLRLALA | 0.586 ± 0.017 |
| SHPPPALVPLFK | 0.678 ± 0.016 |
| SHPPPTVPPAIP | 0.677 ± 0.013 |
| SHPSALPPISAG | 0.734 ± 0.071 |
| SHRDNEKPILSA | 0.75 ± 0.015 |
| SHSKSQRRFQTR | 0.637 ± 0.093 |
| SHVARFMDEFCM | 0.79 ± 0.038 |
| SICFWCKHWSDV | 0.72 ± 0.064 |
| SIFRVKQGKTNK | 0.5732 ± 0.0025 |
| SIGAGSSGVGQE | 0.685 ± 0.037 |
| SILEIFSQGTEM | 0.693 ± 0.01 |
| SILLPLPRLLPC | 0.606 ± 0.018 |
| SIPLYAKNSSLP | 0.722 ± 0.042 |
| SIQHGRFLTLSV | 0.585 ± 0.0093 |
| SIRPPPPSSFPA | 0.806 ± 0.069 |
| SISFSLPRPLPP | 0.688 ± 0.068 |
| SISLLIWLFSSC | 0.637 ± 0.05 |
| SISYCSAFGGID | 0.69655 ± 7.1e-05 |
